Residue numbers refer to the chain shown, from its start. Numbers in names are those of the source.
B1: Acyl-coenzyme A binding domain containing protein 3 (ACBD3), full length, untagged (natural protein, human, UniProt Q9H3P7 1-528, looked up)
chain: MAAVLNAERLEVSVDGLTLSPDPEERPGAEGAPLLPPPLPPPSPPGSGRGPGASGEQPEPGEAAAGGAAEEARRLEQRWGFGLEELYGLALRFFKEKDGKAFHPTYEEKLKLVALHKQVLMGPYNPDTCPEVGFFDVLGNDRRREWAALGNMSKEDAMVEFVKLLNRCCHLFSTYVASHKIEKEEQEKKRKEEEERRRREEEERERLQKEEEKRRREEEERLRREEEERRRIEEERLRLEQQKQQIMAALNSQTAVQFQQYAAQQYPGNYEQQQILIRQLQEQHYQQYMQQLYQVQLAQQQAALQKQQEVVVAGSSLPTSSKVNATVPSNMMSVNGQAKTHTDSSEKELEPEAAEEALENGPKESLPVIAAPSMWTRPQIKDFKEKIQQDADSVITVGRGEVVTVRVPTHEEGSYLFWEFATDNYDIGFGVYFEWTDSPNTAVSVHVSESSDDDEEEEENIGCEEKAKKNANKPLLDEIVPVYRRDCHEEVYAGSHQYPGRGVYLLKFDNSYSLWRSKSVYYRVYYTR
notes: ACBD3, human, UniProtKB entry Q9H3P7, full length; Called untagged in the pull-downs; also called GCP60; PAP7; source: E. coli BL21 Star, purified (Ni-NTA, TEV, SEC); not shown: His6, N-terminal, cleaved; GB1, N-terminal, cleaved
B2: N-terminal His6GB1-tagged PI4KB N-terminal region (residues 1-68) (domain or fragment, human, UniProt Q9UBF8 1-68, looked up)
chain: MGDTVVEPAPLKPTSEPTSGPPGNNGGSLLSVITEGVGELSVIDPEVAQKACQEVLEKVKLLHGGVAV
notes: PI4KB N-terminal region preceding the helical domain, human, UniProtKB Q9UBF8 isoform 1, residues 1-68; also called N-terminal region of PI4KB; source: E. coli BL21 Star, purified (Ni-NTA, SEC); not shown: His6, N-terminal, kept; GB1, N-terminal, kept
B3: ACBD3 Y266A mutant, untagged (natural protein, human, UniProt Q9H3P7 1-528, looked up)
chain: B1 chain with Y266A
notes: ACBD3, human, UniProtKB Q9H3P7, point mutant; source: E. coli BL21 Star, purified (Ni-NTA, TEV, SEC); not shown: His6, N-terminal, cleaved; GB1, N-terminal, cleaved
B4: N-terminal His6GB1-tagged ACBD3 Q domain (residues 241-308) (domain or fragment, human, UniProt Q9H3P7 241-308, looked up)
chain: QQKQQIMAALNSQTAVQFQQYAAQQYPGNYEQQQILIRQLQEQHYQQYMQQLYQVQLAQQQAALQKQQ
notes: ACBD3 Q domain (glutamine rich region), human, UniProtKB Q9H3P7, residues 241-308; also called Q domain of ACBD3; source: E. coli BL21 Star, purified (Ni-NTA, SEC); not shown: His6, N-terminal, kept; GB1, N-terminal, kept
B5: PI4KB, untagged (residues 423-522 removed) (enzyme, human, UniProt Q9UBF8 1-816, looked up)
chain: MGDTVVEPAPLKPTSEPTSGPPGNNGGSLLSVITEGVGELSVIDPEVAQKACQEVLEKVKLLHGGVAVSSRGTPLELVNGDGVDSEIRCLDDPPAQIREEEDEMGAAVASGTAKGARRRRQNNSAKQSWLLRLFESKLFDISMAISYLYNSKEPGVQAYIGNRLFCFRNEDVDFYLPQLLNMYIHMDEDVGDAIKPYIVHRCRQSINFSLQCALLLGAYSSDMHISTQRHSRGTKLRKLILSDELKPAHRKRELPSLSPAPDTGLSPSKRTHQRSKSDATASISLSSNLKRTASNPKVENEDEELSSSTESIDNSFSSPVRLAPEREFIKSLMAIGKRLATLPTKEQKTQRLISELSLLNHKLPARVWLPTAGFDHHVVRVPHTQAVVLNSKDKAPYLIYVEVLECENFDTTSVPARIPENRRDPEDPSAVALKEPWQEKVRRIREGSPYGHLPNWRLLSVIVKCGDDLRQELLAFQVLKQLQSIWEQERVPLWIKPYKILVISADSGMIEPVVNAVSIHQVKKQSQLSLLDYFLQEHGSYTTEAFLSAQRNFVQSCAGYCLVCYLLQVKDRHNGNILLDAEGHIIHIDFGFILSSSPRNLGFETSAFKLTTEFVDVMGGLDGDMFNYYKMLMLQGLIAARKHMDKVVQIVEIMQQGSQLPCFHGSSTIRNLKERFHMSMTEEQLQLLVEQMVDGSMRSITTKLYDGFQYLTNGIM
notes: Phosphatidylinositol 4-kinase beta (PI4KB), human, UniProtKB entry Q9UBF8 isoform 1, with the intrinsically disordered region 423-522 removed; Called untagged in the pull-downs; the AUC mass of about 80 kDa fits the deleted form; also called PI4K IIIβ; untagged full-length PI4KB; source: E. coli BL21 Star, purified (Ni-NTA, TEV, SEC); not shown: His6, N-terminal, cleaved; GB1, N-terminal, cleaved

Columns and labels:
Conditions in all cases: both partners purified
[1] = molecular target: T1, His6GB1-tagged PI4KB V42A mutant (human, UniProt Q9UBF8 1-816, V42A | residues 423–522 removed); experiment: pull-down; Ni-NTA sepharose beads, one partner with N-terminal His6GB1 tag immobilised, both partners 1 μM in 200 μL 30 mM Tris pH 8, 200 mM NaCl, 10 mM imidazole, 1 mM TCEP; 30 min at 4 °C; SDS gels stained with Coomassie Blue
T1 construct: PI4KB, human, UniProtKB Q9UBF8 isoform 1, residues 423-522 removed, point mutant; source: E. coli BL21 Star, purified (Ni-NTA, SEC); not shown: His6, N-terminal, kept; GB1, N-terminal, kept

[2] = molecular target: T2, His6GB1-tagged PI4KB V47A mutant (human, UniProt Q9UBF8 1-816, V47A | residues 423–522 removed); experiment: as above
T2 construct: PI4KB, human, UniProtKB Q9UBF8 isoform 1, residues 423-522 removed, point mutant; source: E. coli BL21 Star, purified (Ni-NTA, SEC); not shown: His6, N-terminal, kept; GB1, N-terminal, kept

[3] = molecular target: B5; experiment: SPR; legend: PI4KB binding to immobilized ACBD3; methods: PI4KB chip-immobilized, ACBD3 injected in a series of concentrations for 3 min, dissociation 5 min; single-exponential model
[4] = molecular target: B1; experiment: pull-down; Ni-NTA sepharose beads, one partner with N-terminal His6GB1 tag immobilised, both partners 1 μM in 200 μL 30 mM Tris pH 8, 200 mM NaCl, 10 mM imidazole, 1 mM TCEP; 30 min at 4 °C; SDS gels stained with Coomassie Blue
[5] = molecular target: T3, N-terminal His6GB1-tagged PI4KB (residues 423-522 removed) (human, UniProt Q9UBF8 1-816, residues 423–522 removed); experiment: as above
T3 construct: Phosphatidylinositol 4-kinase beta (PI4KB), human, UniProtKB entry Q9UBF8 isoform 1, with the intrinsically disordered region 423-522 removed; also called PI4K IIIβ; His6-tagged wild type PI4KB; source: E. coli BL21 Star, purified (Ni-NTA, SEC); not shown: His6, N-terminal, kept; GB1, N-terminal, kept

[6] = molecular target: B5; experiment: as above
[7] = molecular target: B1; experiment: AUC; sedimentation velocity, full-length proteins alone and as complex, 5 μM (both proteins); 10 mM Tris pH 8, 200 mM NaCl, 3 mM β-mercaptoethanol, 20 °C, 48000 rpm; c(s) model

Binder: B1
binding result [1]: binds
binding result [2]: binds
Kd [3]: 320 nM

Binder: B2
binding result [4]: binds

Binder: B3
binding result [5]: binds

Binder: B4
binding result [6]: binds

Binder: B5
stoichiometry N [7]: 1
